The data set addresses T1, His6-RacR (Escherichia coli JM83 (Rac prophage)) (UniProt P76062).
T1 sequence: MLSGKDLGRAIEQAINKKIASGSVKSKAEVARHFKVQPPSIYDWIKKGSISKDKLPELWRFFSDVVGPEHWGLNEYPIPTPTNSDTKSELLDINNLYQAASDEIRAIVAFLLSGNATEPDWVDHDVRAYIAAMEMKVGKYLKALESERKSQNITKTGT
Briefly: EMSA. The settings on record: EMSA: 10 mM Tris-HCl pH 8.0, 1 mM EDTA, 0.1 M NaCl, 0.1 mM DTT, 5% glycerol, 10 ug/mL BSA, 50 ug/mL poly(dI-C), 28 C 40 min; 6% PAGE in 0.5x TBE.

Regarding “GGTTCATCTCGGCTCCTGCTGCGGCGGTTGTCTTCGCGGATTTTGAAATAGAGATTTGTCAGATACGTCATTACGGCAATGATGATACCCACCAGCACGCCGATAGCGTTCCACTGCTCGGGGCTGTAGGCATTCAACATGCCGTTTAGGATGCTCCCGGCTGAAGCGCCATAGGCAGCACCAGTGGTTAGTTTGTCCATGCGATACATACTCTCACCTCGCTTTGTGCGAGTGCTGTTGCT (double strand) [lysN* probe]”, the binding entry is reported as “binds”.
